Biological target: the molecule itself
Assay: crystal structure; TMEM16K purified in UDM/CHS, crystallised in lipidic cubic phase (MAG 7.9; 0.1 M MES pH 6.0, 0.1 M NaCl, 0.1 M CaCl2, 30% PEG300) and by sitting drop vapour diffusion (0.1 M HEPES pH 7.0, 0.1 M calcium acetate, 22% PEG400); open groove conformation

B1: human TMEM16K (anoctamin-10), full length (natural protein, UniProt Q9NW15-1 1-660, looked up)
chain: MKVTLSALDTSESSFTPLVVIELAQDVKEETKEWLKNRIIAKKKDGGAQLLFRPLLNKYEQETLENQNLYLVGASKIRMLLGAEAVGLVKECNDNTMRAFTYRTRQNFKGFDDNNDDFLTMAECQFIIKHELENLRAKDEKMIPGYPQAKLYPGKSLLRRLLTSGIVIQVFPLHDSEALKKLEDTWYTRFALKYQPIDSIRGYFGETIALYFGFLEYFTFALIPMAVIGLPYYLFVWEDYDKYVIFASFNLIWSTVILELWKRGCANMTYRWGTLLMKRKFEEPRPGFHGVLGINSITGKEEPLYPSYKRQLRIYLVSLPFVCLCLYFSLYVMMIYFDMEVWALGLHENSGSEWTSVLLYVPSIIYAIVIEIMNRLYRYAAEFLTSWENHRLESAYQNHLILKVLVFNFLNCFASLFYIAFVLKDMKLLRQSLATLLITSQILNQIMESFLPYWLQRKHGVRVKRKVQALKADIDATLYEQVILEKEMGTYLGTFDDYLELFLQFGYVSLFSCVYPLAAAFAVLNNFTEVNSDALKMCRVFKRPFSEPSANIGVWQLAFETMSVISVVTNCALIGMSPQVNAVFPESKADLILIVVAVEHALLALKFILAFAIPDKPRHIQMKLARLEFESLEALKQQQMKLVTENLKEEPMESGKEKAT
notes: The tag was removed with TEV protease before size exclusion, so residues of the TEV site may remain at the C-terminus; Modelled residues: Ser14-Gln639 (LCP crystal), Ser13-Lys641 (2 mM Ca2+ cryo-EM); the purification is described as similar to that for crystallisation (Sf9); also called hTMEM16K; ANO10; source: Sf9 cells (baculovirus), purified in UDM/CHS (Talon resin, TEV cleavage, Superose 6 …)
Question: Which “stoichiometry N” value does the source give for B1 here?
Answer: 2
